The target in test [1] is mutant A3G D128K, cmyc-tagged, expressed from pD3GFPD128K / D3GFPD128K (human) (UniProt Q9HC16). In words: cell-based or functional assay.
Test [2] concerns the target wild type Apolipoprotein B mRNA-editing enzyme-catalytic polypeptide-like 3G (A3G), cmyc-tagged, expressed from pD3GFP / D3GFP (human) (UniProt Q9HC16). In words: cell-based or functional assay.

For the substance “HIV-1 viral infectivity factor (Vif), expressed from the helper plasmid pcHelp”, in test [1], the infectivity of HIV-GFP virus produced from vector-carrying 293T cells in the presence of HIV-1 Vif, percent of control is 1 % of control and the inhibition of HIV-GFP replication by the A3G-expressing plasmid in the presence of HIV-1 Vif (GFP flow cytometry of infected 293T cells) was found to be 90%. The infectivity of HIV-GFP virus produced from vector-carrying 293T cells in the presence of HIV-1 Vif, percent of control in test [2] is 89 % of control.

For the origin of these results see US20120034693A1.
